Measurements published in patent publication US20150031748A1 (AGENCY FOR SCIENCE TECHNOLOGY AND RESEARCH, published 2015).
Blank lines part the entries; values can stand above or below the binder they belong to.

Legend:
[1] = target: T1, HA-Slug (full length mouse Slug in pDHA, two HA tags) (Mus musculus, UniProt P97469 1-269, 35S-methionine labelled in Example 5); assay: GST pull-down of 35S-labeled in vitro translated protein, autoradiography
T1 construct: also called pDHA-Slug; HA tagged Slug; not shown: the two HA tags of the pDHA vector and any vector linker
T1 sequence: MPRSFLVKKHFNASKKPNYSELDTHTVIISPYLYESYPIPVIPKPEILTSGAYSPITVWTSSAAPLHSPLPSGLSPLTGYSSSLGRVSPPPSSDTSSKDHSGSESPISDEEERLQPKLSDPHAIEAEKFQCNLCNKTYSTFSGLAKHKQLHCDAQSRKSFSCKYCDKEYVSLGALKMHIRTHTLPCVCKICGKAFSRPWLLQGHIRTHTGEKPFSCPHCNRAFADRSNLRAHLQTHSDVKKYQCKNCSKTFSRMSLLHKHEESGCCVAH
Method: In vitro translation was carried out using Quick Coupled T7 TNT System (Promega, Madson, Wis.) according to the manufacturers protocol. Slug, EX and ZNF cloned into the pDHA vector were in vitro translated and labeled with 35S Methionine. GST, GST-ZO-2 SGA, GST-ZO-2 SH3, GST-20-2 GA, GST-ZO-2 AP and GST-ZO-2 P were produced, purified as described above and were bound to glutathione Sepharose-4B (Amersham Biosciences, Piscataway, N.J., USA) following standard protocols.
Purified GST-fusion proteins were quantified by SDS-PAGE by comparing with known amounts of BSA as standards. 20 μl bed volume of beads carrying 20 μg of GST or the above GST fused ZO-2 truncated proteins were incubated with 10 μl of in vitro translated 35S Methionine labeled, HA tagged Slug, EX or ZNF and topped up with 200 μl of buffer B (PBS with 1% TX-100 PBS, 1 mM EDTA, Complete EDTA free protease inhibitor cocktail (Roche Diagnostics, Indianapolis, Ind.), 1 mM dithiothreitol (DTT), 300 μg/ml Benzamiidine) for 3 h at 4° C. The beads were washed three times with 500 μl of buffer B each time. This was followed by suspension in 30 μl of SDS sample buffer and the analysis of the bound proteins by running through a 15% SDS-PAGE gel and autoradiography, with a 2 to 3 day exposure period. To reciprocate the binding, GST, GST-Slug and GST-ZNF were used as baits. […]

[2] = target: T2, GST-ZO-2SGA (canine ZO-2 amino acids 575-947 in pGEX-6P-1) (Canis lupus familiaris, UniProt Q95168 575-947); assay: GST binding assay with GFP-Slug MDCK lysate, anti-Slug blot
T2 construct: also called GST-ZO2 SGA WT
T2 sequence: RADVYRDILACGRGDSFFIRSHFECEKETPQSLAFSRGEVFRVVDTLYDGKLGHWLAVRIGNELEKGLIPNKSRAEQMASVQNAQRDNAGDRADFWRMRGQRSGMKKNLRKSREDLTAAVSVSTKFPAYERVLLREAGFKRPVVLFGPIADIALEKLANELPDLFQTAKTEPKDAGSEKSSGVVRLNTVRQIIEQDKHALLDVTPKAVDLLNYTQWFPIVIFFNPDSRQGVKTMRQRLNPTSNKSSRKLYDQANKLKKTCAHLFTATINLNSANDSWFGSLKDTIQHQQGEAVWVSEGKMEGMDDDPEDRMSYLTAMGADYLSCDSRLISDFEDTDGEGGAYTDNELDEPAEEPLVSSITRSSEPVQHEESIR

[3] = target: T3, MYC tagged GA domain of canine ZO-3 (amino acids 606-899), in vitro translated (canine, UniProt O62683 606-898); assay: GST pull-down of in vitro translated MYC-tagged GA domain, anti-myc blot
T3 construct: range 606-899; also called MYC-ZO-3GA; ZO-3GA; not shown: MYC tag from pGBKT7
T3 sequence (looked up): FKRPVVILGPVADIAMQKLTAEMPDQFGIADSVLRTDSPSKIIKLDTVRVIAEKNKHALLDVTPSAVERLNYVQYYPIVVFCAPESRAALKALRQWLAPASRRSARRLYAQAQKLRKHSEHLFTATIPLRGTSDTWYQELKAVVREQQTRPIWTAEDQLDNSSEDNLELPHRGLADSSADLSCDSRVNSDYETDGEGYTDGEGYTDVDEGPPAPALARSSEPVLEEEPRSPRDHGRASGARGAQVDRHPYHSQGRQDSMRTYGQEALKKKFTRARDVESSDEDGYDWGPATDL

[4] = target: T4, human ZO-1 SGA domain (amino acids 490-883) in bait vector pGBKT7 (human, UniProt P04386 1-147; Q07157 490-883); assay: yeast two-hybrid, QDO growth and beta-galactosidase activity
T4 construct: Yeast two-hybrid bait
Excerpt: (§1) All experimental details were according to the manufacturer's protocols. Clones were screened at high stringency with a quadruple (-Trp, -Leu, -His, -Ade) dropout media and then tested for α- and β-galactosidase activity. Library plasmids with the cDNA inserts from positive clones were isolated and sequenced, resulting in the identification of the entire Slug cDNA. The interaction was retested by transforming this Slug cDNA plasmid with bait vectors carrying the human ZO-1 SGA domain (amino acids 490-883), the canine ZO-2 SGA (amino acids 575-945), SH3 (amino acids 575-713), as well as the GA domain (amino acids 714-945) or the canine ZO-3 […] domain (amino acids 450-899). Empty pGBKT7 and a bait plasmid with […] cDNA (Clontech) were used as negative controls.
(§2) The interaction was retested by transforming this Slug cDNA plasmid with bait vectors carrying the human ZO-1SGA domain (amino acids 490-883), the canine ZO-2SGA (amino acids 575-945), SH3 (amino acids 575-713), GA domain (amino acids 714-945), as well as the canine ZO-3SGA domain (amino acids 450-899). Interactions were determined by monitoring the growth of the co-transformed yeasts in on selective media & β-galactosidase activity. […]

[5] = target: T5, canine ZO-3 SGA domain (amino acids 450-899) in bait vector pGBKT7 (canine, UniProt P04386 1-147; O62683 450-898); assay: as above
T5 construct: Yeast two-hybrid bait; also called canine ZO-3 SGC domain
Excerpt: as §1, §2

- binding result [1]: no binding
B1: GST-ZO-2P (proline rich domain, canine ZO-2 amino acids 948-1174 in pGEX-6P-1) (other)
chain: KPSPEPRAQMRRAASRDQLRDSSPPPAFKPEPPKAKTQNREESFDISRSHDYKSNPSAVAGNEVSGASTRSCPPPIAAKPSFGRSILKPSTPVPSPESEEVGEGSEEQEGAPKSVLGKVKIFEKMDHKARLQRMQELQEAQNARIEIAQKHPDIYAVPIKTHKPDPGLSQHTSSRPPEPQKGPSRLYQDPRGSYGSDAEEEEYRQQLSEHSKRGYYSQPSRYRDTEL
notes: also called the P; not shown: GST of pGEX-6P-1 and its linker (PreScission site, cloning-site residues)

- binding result [2]: binds
B2: GFP-Slug (full length mouse Slug in pEGFP, stably expressed in MDCK cells) (other)
chain: T1 sequence
notes: not shown: EGFP of the pEGFP vector and its linker to Slug

- binding result [3]: no binding
B3: GST-Slug (full length mouse Slug in pGEX4T-1) (other)
chain: T1 sequence
notes: Full length Slug; not shown: GST and the protease-site linker encoded by pGEX4T-1

- binding result [4]: no binding
- binding result [5]: no binding
B4: full-length mouse Slug fused to the GAL4 transactivator domain (library clone 30A) (other, not shown: small tags and cut ends)
chain: T1 sequence
notes: Yeast two-hybrid prey, full length; also called pGADT7-Slug
